Key:
Test in all cases: cell-based or functional assay
[1] = target: Hemagglutinin (HA) of Influenza A virus A/Parma/24/09 (Brisbane-like) (oseltamivir-resistant) H1N1 (Influenza A virus A/Parma/24/09 H1N1)
[2] = target: Hemagglutinin (HA) of Influenza A virus A/Wisconsin/67/2005 H3N2 (inactivated subunits, vaccine) (Influenza A virus A/Wisconsin/67/2005 H3N2)
[3] = target: Hemagglutinin (HA) of Influenza A virus A/Solomon 3/2006 H1N1 (inactivated subunits, vaccine) (Influenza A virus A/Solomon 3/2006 H1N1)

| Substance | HI titre [1] [pM] | HI titre [2] [fM] | HI titre [3] [fM] |
| --- | --- | --- | --- |
| … (SEQ ID NO: 1), bLf C-lobe peptide 418-429 | 1.4 | 23.2 | 46.5 |
| … (SEQ ID NO: 2), bLf C-lobe peptide 506-522 | 1.4 | 11.6 | 46.5 |
| Lactoferrin from bovine milk (bLf) (from UniProt P24627 20-708) | 6000 | 300 | 5000 |
